Measured values taken from the supplement of paper PMC10126150.
± gives the standard deviation of the averaged measurements.

System: ATP
Test: switch fluorescence ratio, 500 uM ATP over buffer (Cy3 cluster intensity, sum of 5 cycles each) (fold (ratio)); higher = stronger signal-on switching upon ATP binding; sequences stand for … in TCGTCGGCAGCGTCAGATGTGTATAAGAGACAGTTTTTTTTTTTTTTTTTTTTTTTTT…TC
Settings: aptamer strand: ATP DNA aptamer (quencher-CACCTGGGGGAGTATTGCGGAGGAAGG + anchor), 100 nM annealed; ATP concentration: 500 uM
Method in brief: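 Cy3-labelled switching-strand clusters on a modified Illumina MiSeq flow-cell were annealed to 100 nM quencher-labelled ATP aptamer and imaged first in selection buffer, then after 15 min with 500 uM ATP at 22 °C. NaOH stripping and re-annealing separated each of five buffer/ATP cycles, and clusters outside 100-1000 RFU were excluded. The fluorescence ratio sums target-cycle Cy3 intensity over buffer-cycle Cy3 intensity per cluster and averages it per switch-domain sequence.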
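Note: ATP exposure 15 min at 22 °C before imaging.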

TTGATGGGGA and CGTGCTAGTA are within error of each other in switch fluorescence ratio: 0.982 ± 0.014 for the first, 1.02 ± 0.058 for the second.

GTTGGTTATG and CGTTCAGCGG are within error of each other in switch fluorescence ratio: 0.99 ± 0.041 for the first, 0.996 ± 0.023 for the second.

GTGGAGGTTG and CTTACTATTC are within error of each other in switch fluorescence ratio: 0.984 ± 0.03 for the first, 0.9715 ± 0.0069 for the second.

TGCATCAATA and TACAAGTTTG are within error of each other in switch fluorescence ratio: 1.03 ± 0.039 for the first, 0.9965 ± 0.0053 for the second.

GATTGGTGTG and ACCGTCAGGT are within error of each other in switch fluorescence ratio: 0.997 ± 0.024 for the first, 1 ± 0.085 for the second.

ATGTTTGGGT and CGGTGCCTTG are within error of each other in switch fluorescence ratio: 1.01 ± 0.019 for the first, 0.978 ± 0.026 for the second.

First: CGTGTGTGCA
Second: TACTTACTAG
The switch fluorescence ratio of the first is lower: 1.004 ± 0.0024 for the first, 1.099 ± 0.01 for the second.

GGTAATTTAG and TTAAGATTCT are within error of each other in switch fluorescence ratio: 1.02 ± 0.015 for the first, 0.993 ± 0.037 for the second.

TATAGGAGGG and TGGGGACTTA are within error of each other in switch fluorescence ratio: 0.991 ± 0.039 for the first, 1.012 ± 0.0089 for the second.

First: TAAAGTAAGT
Second: TGGTTCTGTT
The switch fluorescence ratio of the first is higher: 1.008 ± 0.01 for the first, 0.975 ± 0.018 for the second.

First: CTTCGTGCGA
Second: GCTTTTTGGC
The switch fluorescence ratio of the first is higher: 1.14 ± 0.023 for the first, 1.03 ± 0.063 for the second.

TGGAGGGGGT and ATATTGACAC are within error of each other in switch fluorescence ratio: 1.09 ± 0.28 for the first, 1.08 ± 0.012 for the second.

GGATCAAAAG and GGGATAGGAA are within error of each other in switch fluorescence ratio: 1.01 ± 0.018 for the first, 0.993 ± 0.03 for the second.

GAAAGAAGGG and TAGGAGGTGG are within error of each other in switch fluorescence ratio: 1.21 ± 0.35 for the first, 1.03 ± 0.041 for the second.

TAATGATTGT and CGGGGGATGT are within error of each other in switch fluorescence ratio: 0.982 ± 0.042 for the first, 0.999 ± 0.024 for the second.

First: ACGAGAGAAA
Second: TGTATGAGCA
The switch fluorescence ratio of the first is lower: 0.974 ± 0.017 for the first, 1.02 ± 0.011 for the second.

AGGAGGGAAC and AGTAAAGTTG are within error of each other in switch fluorescence ratio: 0.9916 ± 0.0016 for the first, 0.991 ± 0.024 for the second.

GAGTTGTGGG and TACTTGCTTC are within error of each other in switch fluorescence ratio: 0.993 ± 0.014 for the first, 1.02 ± 0.038 for the second.

First: TAAGATTTGT
Second: ACGGAGGGTG
The switch fluorescence ratio of the first is lower: 0.99 ± 0.02 for the first, 1.029 ± 0.0088 for the second.

ACGAAAGTCT and TGTAGCGGGG are within error of each other in switch fluorescence ratio: 1.03 ± 0.041 for the first, 0.9942 ± 0.0048 for the second.

GATATAGTGC and AGAAGGGACG are within error of each other in switch fluorescence ratio: 1.01 ± 0.05 for the first, 0.973 ± 0.021 for the second.

CGGTTAGTGT and GTGAATAGAG are within error of each other in switch fluorescence ratio: 0.971 ± 0.035 for the first, 1 ± 0.027 for the second.

AGGGGGAACT and GAACGGCTCT are within error of each other in switch fluorescence ratio: 1.03 ± 0.033 for the first, 1.012 ± 0.0011 for the second.

ATAGTATCTT and TTGGCTTTGT are within error of each other in switch fluorescence ratio: 1 ± 0.021 for the first, 0.985 ± 0.022 for the second.

Compared with GCGAGGCCAA, CTCAGTGGTA is lower in switch fluorescence ratio: 1.28 ± 0.054 for the first, 1.014 ± 0.0043 for the second.

AGTTATAAGT and TAAACTATGG are within error of each other in switch fluorescence ratio: 0.979 ± 0.01 for the first, 1.02 ± 0.062 for the second.

GGGGGCTATA and TAAGGAAGGA are within error of each other in switch fluorescence ratio: 1.001 ± 0.0094 for the first, 0.9919 ± 0.0054 for the second.

GCGGTAATTT and AGGGGGGAAA are within error of each other in switch fluorescence ratio: 1 ± 0.024 for the first, 1.01 ± 0.027 for the second.

Compared with TTTTCCTCCC, AGGCATGATG is lower in switch fluorescence ratio: 1.28 ± 0.24 for the first, 1.0051 ± 0.00033 for the second.

First: CTATTGGTTA
Second: CATTAAAGCC
The switch fluorescence ratio of the first is higher: 1.01 ± 0.011 for the first, 0.968 ± 0.025 for the second.

TCATGCATCT and TACAGGCGCT are within error of each other in switch fluorescence ratio: 1.01 ± 0.072 for the first, 0.994 ± 0.015 for the second.

Going from TGACGCAGGT to TTTGGAGAAT, the switch fluorescence ratio falls from 1.38 ± 0.04 to 1.02 ± 0.025.

TCTGCTAAAA and TCGGCTTAGG are within error of each other in switch fluorescence ratio: 0.973 ± 0.041 for the first, 0.987 ± 0.048 for the second.

TCAGGAGTCT and TGCAGTCATG are within error of each other in switch fluorescence ratio: 0.977 ± 0.062 for the first, 0.995 ± 0.03 for the second.

CGGTCCGGG and TTTATTGGAA are within error of each other in switch fluorescence ratio: 1.05 ± 0.061 for the first, 0.9858 ± 0.0091 for the second.

Compared with ACAACCAGGA, TGTTGGTTGC is lower in switch fluorescence ratio: 1.737 ± 0.00071 for the first, 0.988 ± 0.033 for the second.

TGAACTAAAT and TTTGTTTTA are the same in switch fluorescence ratio: 1.01 ± 0.024 for the first, 1.01 ± 0.019 for the second.

First: TTTTCCTCGC
Second: GCGAGAGGAT
The switch fluorescence ratio of the first is higher: 2.86 ± 0.27 for the first, 0.985 ± 0.028 for the second.

CGGTTTTAAG and TCAGTTTGGA are within error of each other in switch fluorescence ratio: 1.02 ± 0.018 for the first, 1.01 ± 0.018 for the second.

ATGGCAGACA and TTAGGGGCAG are within error of each other in switch fluorescence ratio: 0.9836 ± 0.0036 for the first, 0.981 ± 0.034 for the second.

GGGGAAGGAA and CAAAGGTTGG are within error of each other in switch fluorescence ratio: 0.998 ± 0.027 for the first, 1 ± 0.038 for the second.

TGCAGAAAAT and GAGAGCTTGT are within error of each other in switch fluorescence ratio: 1.01 ± 0.036 for the first, 0.956 ± 0.027 for the second.

AGCAGGTGGG and TGGAAAAATT are within error of each other in switch fluorescence ratio: 1.05 ± 0.076 for the first, 1.03 ± 0.04 for the second.

GGGGGACTTC and CCGGCGGTTT are within error of each other in switch fluorescence ratio: 1.005 ± 0.01 for the first, 1.04 ± 0.029 for the second.

ACGTGCAACT and GGCTTTACTA are within error of each other in switch fluorescence ratio: 0.981 ± 0.049 for the first, 1 ± 0.012 for the second.

Going from CGGTGGGGGC to TTTGGGGTT, the switch fluorescence ratio rises from 0.9806 ± 0.0057 to 1.02 ± 0.018.

AGGCAGTTTC and GTTTGTGGGG are within error of each other in switch fluorescence ratio: 0.988 ± 0.049 for the first, 0.991 ± 0.021 for the second.

Going from GGTTGTGAAG to CGCTCAGGAC, the switch fluorescence ratio rises from 0.994 ± 0.043 to 1.29 ± 0.1.

GTTTTGTGTT and CATCGGGGGG are within error of each other in switch fluorescence ratio: 0.992 ± 0.0047 for the first, 1 ± 0.02 for the second.

GAGCGCGATT and GCGGGAGGGT are within error of each other in switch fluorescence ratio: 1.03 ± 0.036 for the first, 1.015 ± 0.0081 for the second.

TGAATAGAAC and TTTATGACAT are within error of each other in switch fluorescence ratio: 1.01 ± 0.015 for the first, 0.971 ± 0.029 for the second.

CGCTGCGGTT and TATTGGGAGG are within error of each other in switch fluorescence ratio: 1.01 ± 0.05 for the first, 0.968 ± 0.023 for the second.

Going from TCCCATGTTT to TGATGGAGGC, the switch fluorescence ratio rises from 0.963 ± 0.032 to 1.01 ± 0.013.

Going from TCTGTCCTTT to AGAAATGTTA, the switch fluorescence ratio rises from 0.9708 ± 0.0028 to 1.024 ± 0.0063.

AGTAACTTGA and TTTGCTGGTT are within error of each other in switch fluorescence ratio: 1 ± 0.013 for the first, 1.02 ± 0.071 for the second.

TCATGGGGAG and ATTCAATCGA are within error of each other in switch fluorescence ratio: 1.03 ± 0.033 for the first, 1.018 ± 0.0031 for the second.

AGTTTCTTAC and ATTCCTGTT are within error of each other in switch fluorescence ratio: 1.01 ± 0.024 for the first, 1.004 ± 0.0019 for the second.

TTTGGGCTGC and CAAGGTTGTT are within error of each other in switch fluorescence ratio: 1.28 ± 0.41 for the first, 1 ± 0.011 for the second.

Compared with CGCCCGTAGG, TGTTTGCTTT is lower in switch fluorescence ratio: 1.05 ± 0.011 for the first, 0.986 ± 0.023 for the second.

TAGATGTTTT and TCAAATTTTA are within error of each other in switch fluorescence ratio: 0.986 ± 0.035 for the first, 1.02 ± 0.031 for the second.

TGTACTTTGG and GAGAGGGGGA are within error of each other in switch fluorescence ratio: 1.01 ± 0.022 for the first, 0.97 ± 0.036 for the second.

CAGGGGAGGG and CGTTGCGCGT are within error of each other in switch fluorescence ratio: 1.06 ± 0.09 for the first, 0.993 ± 0.037 for the second.

First: ATAACAAATT
Second: ACCGAGGCAT
The switch fluorescence ratio of the first is lower: 1.03 ± 0.031 for the first, 3.81 ± 1.5 for the second.

Going from AGGGCGGCTG to TCGGCATTTT, the switch fluorescence ratio rises from 0.985 ± 0.024 to 1.027 ± 0.0014.

GCCGCGAAGG and ATAAAAGGGG are within error of each other in switch fluorescence ratio: 1.02 ± 0.018 for the first, 1.001 ± 0.0097 for the second.

CGAAAGAAAT and TTTTGGTTGG are within error of each other in switch fluorescence ratio: 1.02 ± 0.031 for the first, 0.971 ± 0.028 for the second.

AGAGATGTTG and ATAGAGGATA are within error of each other in switch fluorescence ratio: 0.993 ± 0.045 for the first, 0.9861 ± 0.0073 for the second.

Going from CGTGTACATC to TTATGTACGT, the switch fluorescence ratio rises from 1.01 ± 0.011 to 1.09 ± 0.021.

CATATGGCTT and GGCTGTTCGG are within error of each other in switch fluorescence ratio: 1.02 ± 0.023 for the first, 0.988 ± 0.036 for the second.

Compared with TTTCTCAGTA, TGATTCAGTA is lower in switch fluorescence ratio: 1.03 ± 0.041 for the first, 0.974 ± 0.011 for the second.

GCTATTGGGT and GGCGGGGTGG are within error of each other in switch fluorescence ratio: 0.95 ± 0.022 for the first, 1.09 ± 0.12 for the second.

AAGTAAGTTG and GGATTTTCAC are within error of each other in switch fluorescence ratio: 0.9806 ± 0.0064 for the first, 1 ± 0.03 for the second.

ATTATCTAGG and GGGGGTGTCA are within error of each other in switch fluorescence ratio: 0.985 ± 0.013 for the first, 0.968 ± 0.0099 for the second.

CTCTTTTGGG and AGTAATAAGT are within error of each other in switch fluorescence ratio: 0.9652 ± 0.0019 for the first, 0.979 ± 0.047 for the second.

TTCGGGAGCC and AGTGACTTTT are within error of each other in switch fluorescence ratio: 1 ± 0.024 for the first, 0.9961 ± 0.0089 for the second.

GCCACAGCTG and GGGTGTAATT are the same in switch fluorescence ratio: 1 ± 0.013 for the first, 1 ± 0.016 for the second.

ATGGCTATTC and AGGGGAAAGT are within error of each other in switch fluorescence ratio: 0.979 ± 0.046 for the first, 0.954 ± 0.052 for the second.

GATATTTCGT and TCGTGGATGT are within error of each other in switch fluorescence ratio: 0.9768 ± 0.0034 for the first, 1 ± 0.028 for the second.

With ATGGTTCGGG the switch fluorescence ratio was 0.996 ± 0.014.
